Test results: patent US20200332017A1 (SALUBRIS CHENGDU BIOTECH, published 2020)

Experiments:
[1] = biological target: T1, full length human CD40 (uniprot # P25942-1) on the membrane of 293T-CD40 cells (human, UniProt P25942 21-277); assay: flow cytometry on 293T-CD40 cells
T1 construct: also called cell surface CD40
Experimental: 2×10⁵ cells per well in 96 well-plates were incubated with the mouse anti-CD40 antibodies or the controls of various concentrations in FACS buffer for 40 minutes on ice. […] Following an incubation of 40 minutes at 4° C. in dark, cells were washed three times and resuspended in FACS buffer. Fluorescence was measured using a Becton Dickinson FACS Canto II-HTS equipment and plotted against antibody concentration.

[2] = biological target: T2, human CD40-Fc protein (amino acid residue 21-193 of SEQ ID NO: 67 linked to N-terminus of amino acid residue … (human, biotin-labeled in the capture ELISA and in the benchmark blocking ELISA; unlabeled when coated in the ligand blocking ELISA); assay: benchmark blocking ELISA: BM2 (Selicrelumab) coated as competitor, antibody titrated in biotin-labeled human CD40-Fc solution, streptavidin-HRP, OD(450-630)
T2 construct: also called biotin-labeled human CD40-Fc; human CD40-Fc-biotin
Experimental: The ability of the mouse anti-CD40 antibodies of the present invention to block the binding of the Benchmark to human CD40 was measured using a competitive ELISA assay. […] The next day, plates were washed with wash buffer, and blocked with 5% w/v non-fatty milk in PBST for 2 hours at 37° C. Plates were then washed again using wash buffer. […] After incubation at 37° C. for 40 minutes, plates were washed 4 times using wash buffer. Then streptavidin conjugated HRP was added and incubated for 40 minutes at 37° C. to detect biotin-labeled human CD40-Fc bound to plates. Plates were washed again using wash buffer. Finally, TMB was added and the reaction was stopped using 1M H₂SO₄, and the absorbance was read at 450 nm. Data were analyzed using Graphpad Prism software and IC₅₀ values were reported.

[3] = biological target: T2, human CD40-Fc protein (amino acid …); assay: capture ELISA, biotin human CD40-Fc; mAb at 3.2 ng/mL
Experimental: (§1) Plates were washed 4 times with wash buffer (PBS+0.05% Tween-20, PBST) and then blocked with 200 μl/well blocking buffer (5% w/v non-fatty milk in PBST) for 2 hours at 37° C. […] After a final wash, plates were incubated with 100 μl/well ELISA substrate TMB (Innoreagents, Cat # TMB-S-002). The reaction was stopped in 15 minutes at 25° C. with 50 μl/well 1M H₂SO₄, and the absorbance was read at 450 nm and plotted against antibody concentration. Data were analyzed using Graphpad Prism software and EC₅₀ values were reported.

[4] = biological target: T2, human CD40-Fc protein (amino acid …); assay: capture ELISA; antibody captured, biotin-labeled human CD40-Fc in solution
Experimental: as §1
(§2) In the capture ELISA test, a mouse control antibody targeting a protein other than CD40 was used.

[5] = biological target: T2, human CD40-Fc protein (amino acid …); assay: capture ELISA, biotin human CD40-Fc; mAb at 80 ng/mL
Experimental: as §1

[6] = biological target: T3, cynomolgus monkey CD40-his protein (Acro biosystems, Cat # CD0-052H6) (cynomolgus monkey, UniProt G7PG38 21-193); assay: SPR, Biacore; cynomolgus CD40-his
T3 construct: Bought reagent; also called Cynomolgus CD40-his
Text: (§3) Briefly, goat anti-mouse IgG (GE healthcare, Cat # BR100838, Mouse Antibody Capture Kit) was covalently linked to a CM5 or a Protein G chip (carboxy methyl dextran coated chip) via primary amines, using a standard amine coupling kit provided by Biacore (GE healthcare, Pittsburgh, Pa., USA). Un-reacted moieties on the biosensor surface were blocked with ethanolamine. […] Then, human CD40-his (Acro biosystems, Cat # CD0-H5228) or cynomolgus monkey CD40-his protein (Acro biosystems, Cat # CD0-052H6) in HBS EP buffer (provided by Biacore) was flowed onto the chip at a flow rate of 30 μL/min. The antigen-antibody association kinetics was followed for 2 minutes and the dissociation kinetics was followed for 10 minutes. The association and dissociation curves were fit to a 1:1 Langmuir binding model using BIA evaluation software.

[7] = biological target: T2, human CD40-Fc protein (amino acid …); assay: competitive ELISA; coated human CD40-Fc, competitor biotin human CD40L-his
Experimental: Briefly, human CD40-Fc proteins (amino acid residue 21-193 of SEQ ID NO: 67 linked to N-terminus of amino acid residue 99-330 of SEQ ID NO.: 24) were coated on 96-well micro plates at 2 μg/mL in coating buffer (PBS) and incubated overnight at 4° C. The next day, plates were washed with wash buffer (PBS+0.05% Tween-20, PBST), and blocked with 5% w/v non-fatty milk in PBST for 2 hours at 37° C. Plates were then washed again using wash buffer.
(§4) Serially diluted the mouse anti-CD40 antibodies of the present invention or the controls (starting at 200 nM with a four-fold serial dilution) in 2.5% w/v non-fatty milk in PBST were prepared to the plates and incubated with the human CD40-Fc proteins at room temperature for 40 minutes. […] Plates were washed again. 100 μl/well of streptavidin conjugated HRP was added and incubated for 40 minutes at 37° C. Plates were washed again using wash buffer. Finally, TMB was added and the reaction was stopped using 1M H₂SO₄, and the absorbance was read at 450 nm. Data were analyzed using Graphpad Prism software and IC₅₀ values were reported.
as §2

[8] = biological target: T4, Human CD40-his protein (Acro biosystems, Cat # CD0-H5228) (human, UniProt P25942 21-193); assay: SPR, Biacore; human CD40-his
T4 construct: Bought reagent; not shown: his tag
Text: as §3

[9] = biological target: T2, human CD40-Fc protein (amino acid …); assay: ligand blocking ELISA: human CD40-Fc coated, antibody titrated, then biotin-labeled human CD40L-his (blocked ligand), streptavidin-HRP, OD(450-630)
Experimental: as §4

Binder | EC50 [1] [nM] | IC50 (read off the curve) [2] | absorbance at 450 nm [3] [OD450] | EC50 [4] [nM] | absorbance at 450 nm [5] [OD450] | Kd [6] [nM] | IC50 [7] [nM] | Kd [8] [nM] | IC50 (read off the curve) [9] [µg/mL]
mouse anti-CD40 monoclonal antibody C1C1 (antibody, V domains shown, those are used here for the chimeric antibody only; also called Mouse C1C1; mouse C1C1) VH: EVKLVESGGGLVKPGASLKLSCAASGFTFSNYGMSWVRQNSDKRLEWVASISSGGDDTYYPDNVKGRCTISRENAKNTLYLEMSSLKTEDTALYYCTRAGGKAMDYWGQGTSVTVST VL: DIVLTQSPATLSVIPGNSVSLSCRASQSIRDNLHWYQQKSHESPRLLINYASQSISGIPSRFSGSGSGTDFTLTINSVETEDFGIYFCQQFNSWPLTFGGGTKLELK | 1.86 | ~0.5 nM | 0.288 | 0.192 | 1.48 | 2.35 | 5.4 | 3.62 | ~0.8
chimeric antibody C1C1 (antibody, human IgG1, kappa, V domains shown, also called chC1C1; chimeric C1C1) VH: EVKLVESGGGLVKPGASLKLSCAASGFTFSNYGMSWVRQNSDKRLEWVASISSGGDDTYYPDNVKGRCTISRENAKNTLYLEMSSLKTEDTALYYCTRAGGKAMDYWGQGTSVTVST VL: DIVLTQSPATLSVIPGNSVSLSCRASQSIRDNLHWYQQKSHESPRLLINYASQSISGIPSRFSGSGSGTDFTLTINSVETEDFGIYFCQQFNSWPLTFGGGTKLELKR | 1.82 | ~0.02 µg/mL | 0.082 | 0.24 | 1.17 | 2.34 | 4.83 | 5.98 | ~0.8
